Sequences and labels used below:
B1: CPEB3 Ribozyme (parent)
chain: UAACAGGGGGCCACAGCAGAAGCGUUCACGUCGCAGCCCCUGUCAGAUUCUGGUGAAUCUGCGAAUUCUGCUGUAUAUCUC

In the data set the parent is B1. The experiment in a line: self-cleavage, relative activity (ratio to wild type); higher = more cleavage; in vitro, sequencing. In short, it runs like this: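 For each CPEB3 ribozyme variant, relative activity is its cleaved/total read fraction divided by the unmutated ribozyme's. Barcoded error-prone PCR libraries were transcribed by T7 RNA polymerase (5 hours, 37°C) and held in DNase I for 15 min before an EDTA stop, with cleavage occurring throughout. Template-switching reverse transcription and Illumina sequencing were used to read the RNAs. A 5-read minimum applied, and results are the mean of three batches.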
On to U1C C50A, for which the self-cleavage is 0.61.

U54G A56U: the self-cleavage amounted to 0.31.

Turning to G22C A65G, the self-cleavage was found to be 0.32.

In the case of G8U U67A, the self-cleavage stood at 0.19.

As for G33U A56G, the self-cleavage was 0.29.

On to G46A U54C, for which the self-cleavage was determined as 0.06.

Consider A3G C29U, for which the self-cleavage was 0.59.

Consider U54A G61U, for which the self-cleavage is 0.76.

Consider G9U A18C, for which the self-cleavage turned out to be 0.18.

For the variant C14U U26A, the self-cleavage was found to be 0.93.

Turning to G30A G46A, the self-cleavage was 0.15.

For U43C U72G, the self-cleavage is 0.59.

For the variant A2G U72A, the self-cleavage is 0.36.

Regarding U67C U69A, the self-cleavage worked out at 0.33.

For the variant U67G U78C, the self-cleavage was 0.3.

As for G7U U25A, the self-cleavage is 0.15.

On to C37A A77G, for which the self-cleavage is 0.18.

Consider C29U C79A, for which the self-cleavage was found to be 0.7.

Consider U31A A75U, for which the self-cleavage was 0.61.

Regarding C62A G73A, the self-cleavage turned out to be 0.24.

With C34U A56U, the self-cleavage came out at 0.34.

Regarding A20U A75G, the self-cleavage turned out to be 0.2.

As to A56G U80C, the self-cleavage is 0.84.

With G7A C14A, the self-cleavage is 0.31.

Take G22C A64G: the self-cleavage was found to be 0.24.

As for A2U G9C, the self-cleavage was 0.45.

As to A13G C50G, the self-cleavage was determined as 0.81.

For G63U A75G, the self-cleavage turned out to be 1.14.

Consider G9U U54C, for which the self-cleavage worked out at 0.1.

Regarding A28U, the self-cleavage stood at 0.81.

In the case of A18U U26G, the self-cleavage stood at 0.07.

For the variant A18U U26A, the self-cleavage was found to be 0.31.

G19U U43A: the self-cleavage is 0.29.

Take G19A U67A: the self-cleavage worked out at 0.07.

With U48C, the self-cleavage turned out to be 0.65.

In the case of U48A A75U, the self-cleavage amounted to 0.61.

Regarding A35G U74A, the self-cleavage was determined as 1.33.

For the variant U31G U69C, the self-cleavage turned out to be 0.18.

For U1A A2U, the self-cleavage was found to be 1.09.

With A5C G36A, the self-cleavage turned out to be 0.31.

On to A15U A75G, for which the self-cleavage came to 0.67.

In the case of C37G U80A, the self-cleavage was found to be 1.18.

Turning to A45G A77U, the self-cleavage came to 0.9.

With A57G C68G, the self-cleavage was 0.4.

In the case of C23U U74C, the self-cleavage amounted to 0.76.

As to G33U C38U, the self-cleavage was determined as 0.36.

For C23U U31C, the self-cleavage came out at 0.22.

As to U43C G73A, the self-cleavage was found to be 1.13.

On to A13G A64G, for which the self-cleavage turned out to be 0.76.

For C62U U78C, the self-cleavage stood at 0.2.

C11G U54C: the self-cleavage was 0.49.

For U1C A75U, the self-cleavage is 1.05.

On to U48G U69A, for which the self-cleavage amounted to 0.21.

Turning to U41A C44A, the self-cleavage worked out at 0.15.

As to U51C U78A, the self-cleavage was determined as 1.02.

For the variant A2U A15U, the self-cleavage came to 0.41.

As for A57U U67A, the self-cleavage came out at 0.38.

On to A35U U78A, for which the self-cleavage was determined as 0.54.

Turning to U25C A28G, the self-cleavage was 0.28.

A13G G33C: the self-cleavage came to 0.17.

As for U31C C44A, the self-cleavage was found to be 0.4.

Take C12U A28G: the self-cleavage stood at 0.89.

Regarding U31G C44U, the self-cleavage was determined as 0.16.

G19C U26C: the self-cleavage was determined as 0.27.

C34U A45G: the self-cleavage was 0.34.

Turning to G30C U60C, the self-cleavage worked out at 0.12.

For the variant G6U G10A, the self-cleavage was found to be 0.34.

Turning to A45G G63U, the self-cleavage turned out to be 0.74.

Take A2U U41A: the self-cleavage came to 0.25.

Turning to U41C U48G, the self-cleavage was 0.55.

As for C17A U78C, the self-cleavage stood at 0.21.

Take G33A U41C: the self-cleavage stood at 0.39.

As to A3G C81G, the self-cleavage was found to be 1.17.

A15U A57U: the self-cleavage was 0.15.

Take A15U A57G: the self-cleavage turned out to be 0.66.

With A20G U49A, the self-cleavage is 0.34.

For A56U U78C, the self-cleavage was 0.61.

U72A U80A: the self-cleavage worked out at 1.11.

For the variant A5G C79A, the self-cleavage came out at 1.01.

Take U41A G42C: the self-cleavage is 0.21.

Regarding U43C U60G, the self-cleavage is 0.3.

Regarding A18G U67C, the self-cleavage is 0.26.

As for U58C U76C, the self-cleavage was 0.67.

In the case of U78A U80A, the self-cleavage came to 1.23.

In the case of G22C A35U, the self-cleavage worked out at 0.12.

As for C40A C81G, the self-cleavage was 0.07.

As to U51C C68G, the self-cleavage was determined as 0.69.

U54A: the self-cleavage came out at 1.09.

On to C37U A77G, for which the self-cleavage is 0.78.

On to A20G U76A, for which the self-cleavage was 1.03.

As to A2U A20G, the self-cleavage was found to be 0.69.

On to A2U A20U, for which the self-cleavage is 0.41.

Consider A18U A56U, for which the self-cleavage was 0.31.

In the case of C11A A47U, the self-cleavage turned out to be 0.27.

As to C44U A64U, the self-cleavage turned out to be 0.18.

Turning to G8U G52A, the self-cleavage came to 0.21.

As to A13G G55A, the self-cleavage was found to be 0.79.

As for A15C U60C, the self-cleavage was found to be 0.28.

For U26A A28U, the self-cleavage was 0.61.

On to U26C G63A, for which the self-cleavage was determined as 0.35.

As for U54C C81U, the self-cleavage is 1.17.

For the variant G24A U67C, the self-cleavage was found to be 0.22.

As to U60A A75G, the self-cleavage amounted to 0.46.

Consider A2G A15G, for which the self-cleavage was found to be 0.53.

In the case of G10C A57G, the self-cleavage was 0.21.

For the variant A18U U66A, the self-cleavage was 0.29.

As to A65G U69A, the self-cleavage came to 0.33.

A28C A56U: the self-cleavage stood at 0.23.

Regarding A15U C68U, the self-cleavage amounted to 0.26.

Turning to A3G A21U, the self-cleavage was 0.49.

Take C50U U78A: the self-cleavage was determined as 1.12.

Turning to A21G C59A, the self-cleavage is 0.31.

Take A2U A35G: the self-cleavage is 1.19.

Take G7A: the self-cleavage was determined as 0.25.

On to A3C, for which the self-cleavage turned out to be 1.16.

For the variant A3U, the self-cleavage was found to be 1.06.

Turning to G10U A13G, the self-cleavage was found to be 0.11.

With U25A G63A, the self-cleavage amounted to 0.28.

Regarding C38U A45U, the self-cleavage was determined as 0.35.

With G46A A47C, the self-cleavage amounted to 0.17.

Take U31C U66A: the self-cleavage worked out at 0.28.

Take G7A U26G: the self-cleavage turned out to be 0.07.

In the case of U67C U78G, the self-cleavage turned out to be 0.12.

On to U31C G33A, for which the self-cleavage is 0.21.

Take G52C A65G: the self-cleavage came to 0.49.

As for U25A C79U, the self-cleavage amounted to 0.27.

For A65G A77G, the self-cleavage was 0.51.

Turning to G53U C81G, the self-cleavage stood at 1.24.

In the case of G9A U72A, the self-cleavage is 0.23.

Take C39U U51G: the self-cleavage was 0.89.

As for C14U G61C, the self-cleavage was 0.35.

As for A35U C40A, the self-cleavage came to 0.09.

As to U51A G73A, the self-cleavage stood at 1.15.

For G9A U25A, the self-cleavage is 0.2.

For G8A U43C, the self-cleavage was found to be 0.14.

As for C11U G42A, the self-cleavage amounted to 0.

In the case of G10A U74C, the self-cleavage was found to be 0.25.

Consider U60C C62A, for which the self-cleavage stood at 0.19.

Take C59A A65G: the self-cleavage came out at 0.13.

Turning to A20C U43C, the self-cleavage came to 0.28.

On to C38A G42C, for which the self-cleavage amounted to 0.28.

For A20U C59G, the self-cleavage stood at 0.24.

With A2U U80A, the self-cleavage was 1.14.

On to U49C G63A, for which the self-cleavage amounted to 0.39.

As for G9U U69C, the self-cleavage is 0.11.

With A18G G24A, the self-cleavage was 0.15.

Turning to U60A C71U, the self-cleavage was found to be 0.48.

Regarding A21U A45U, the self-cleavage is 0.17.

Turning to G24A A57C, the self-cleavage was 0.15.

As to G46A U80C, the self-cleavage amounted to 0.37.

As to A28U U74A, the self-cleavage amounted to 1.19.

Turning to A35U, the self-cleavage was found to be 0.54.

As for A20G C50A, the self-cleavage worked out at 0.89.

In the case of G55A U78A, the self-cleavage was 1.

Regarding G33U A45G, the self-cleavage turned out to be 0.13.

As to C11U A65G, the self-cleavage is 0.2.

As to G10A C17U, the self-cleavage came to 0.06.

Consider C17A U67C, for which the self-cleavage stood at 0.44.

As for C39U U69C, the self-cleavage was determined as 0.32.

For the variant G16A A77G, the self-cleavage was found to be 0.54.

On to C34G U72A, for which the self-cleavage stood at 0.08.

A18U U43C: the self-cleavage amounted to 0.26.

On to G8C U78C, for which the self-cleavage was found to be 0.07.

Take U41G U51G: the self-cleavage is 0.27.

For the variant A5C C34G, the self-cleavage was determined as 0.41.

For the variant G52U C68U, the self-cleavage worked out at 1.19.

Turning to A15U A28G, the self-cleavage came to 0.22.
